Results on six molecules are retold here after patent publication US20260042848A1 (BIOLEGEND, published 2026).

Assay [1] deals with mGypa (mouse Glycophorin A) on transfected BA/F3 cells (mouse, UniProt P14220 1-168). Briefly: flow cytometry on mGypa-transfected BA/F3 cells, anti-mouse IgG-APC secondary. Background: A flow cytometer gives signals particle by particle.
Assay [2] has as its target T1, Human AXLΔcyto-IG (human AXL lacking the cytoplasmic domain) on transfected BA/F3 cells (human, UniProt P30530 26-472, limits assumed).
T1 construct: GFP is co-expressed from the vector; also called huAXLΔcyto-IG; human AXL transfected BA/F3 cells
T1 sequence: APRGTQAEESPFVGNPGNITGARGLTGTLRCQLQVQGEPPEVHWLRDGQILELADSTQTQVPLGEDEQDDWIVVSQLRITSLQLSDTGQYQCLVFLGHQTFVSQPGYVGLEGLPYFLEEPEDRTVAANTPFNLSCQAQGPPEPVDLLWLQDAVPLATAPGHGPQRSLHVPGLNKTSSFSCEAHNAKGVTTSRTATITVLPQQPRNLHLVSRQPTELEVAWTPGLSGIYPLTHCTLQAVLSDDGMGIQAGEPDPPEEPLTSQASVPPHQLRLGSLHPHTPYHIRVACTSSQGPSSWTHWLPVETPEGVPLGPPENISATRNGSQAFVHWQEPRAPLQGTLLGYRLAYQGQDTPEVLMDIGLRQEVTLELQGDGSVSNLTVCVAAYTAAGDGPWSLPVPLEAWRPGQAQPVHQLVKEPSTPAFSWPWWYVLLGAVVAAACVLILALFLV
In words: flow cytometry on human AXL-transfected BA/F3 cells, anti-mouse IgG-APC secondary. On the procedure: (§1) FIG. 1A depicts surface staining on BA/F3 cells transfected with human AXL, and FIG. 1B depicts surface staining on BA/F3 cells transfected with mGypa (mouse Glycophorin A) as a control. BA/F3 cells (IL-3 dependent mouse pro-B cell line) were used to eliminate the possibility of human proteins being expressed. The transfection efficiency was measured by GFP, which is used to visualize/identify cells that have been transfected and are expressing the vector. GFP (or FITC) on the x-axis identifies cells that are positive for GFP (i.e., cells that have been transfected). […] Cells were then washed and stained with a secondary antibody (anti-mouse IgG-APC).
(§2) In a first experiment, exemplary anti-human AXL antibodies were assessed on an IL-3 dependent murine pro B cell line (BA/F3, RIKEN CELL BANK, Cat #RCB4476), transfected with Human AXLΔcyto-IG (Ba/F3 cells were retrovirally transduced with human AXL lacking the cytoplasmic domain and GFP). […] Cells were then washed twice with FACS wash buffer and stained with anti-mouse IgG-APC secondary antibody for 15 minutes. Cells were washed with FACS buffer and analyzed on a BD Canto II and corresponding data was analyzed by FlowJo.

Assay [3] has as its target T2, hAXL recombinant protein (Sino Biological, Catalog #10279-H08H) (human, UniProt P30530 26-449).
T2 construct: Bought soluble protein; also called human AXL recombinant protein; recombinant human AXL protein
T2 sequence: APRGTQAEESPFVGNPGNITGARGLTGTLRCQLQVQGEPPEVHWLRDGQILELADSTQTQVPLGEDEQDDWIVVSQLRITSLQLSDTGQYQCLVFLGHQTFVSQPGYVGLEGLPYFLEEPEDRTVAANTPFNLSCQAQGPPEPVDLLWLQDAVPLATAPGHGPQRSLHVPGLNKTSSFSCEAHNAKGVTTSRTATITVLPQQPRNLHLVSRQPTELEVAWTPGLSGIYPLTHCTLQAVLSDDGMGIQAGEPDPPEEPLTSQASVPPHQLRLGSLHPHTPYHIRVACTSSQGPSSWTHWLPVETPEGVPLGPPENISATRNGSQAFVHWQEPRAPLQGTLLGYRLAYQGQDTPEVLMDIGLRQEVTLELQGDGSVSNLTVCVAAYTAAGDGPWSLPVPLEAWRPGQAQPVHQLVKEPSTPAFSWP
In words: pre-incubation of antibody with soluble recombinant human AXL, then flow cytometry on human AXL-transfected BA/F3 cells (FIG. 3D). On the procedure: (§3) In each case, cell populations of interest were selected by setting and displaying gates (for visual comparison purposes) based on the corresponding isotype control.
(§4) PE conjugated mIgG1 and mIgG2a, or PU-IgG1 were used as controls. After incubation, 2×10⁶/100 μL of huAXLΔcyto-IG transfected BA/F3 cells were added to each tube, and cells were acquired on a BD Canto II and corresponding data was analyzed by FlowJo.

For assay [4], the target named is T1, Human AXLΔcyto-IG (human AXL lacking …). In words: flow cytometry on Human AXLΔcyto-IG transfected BA/F3 cells, anti-mouse IgG-APC secondary. On the procedure:
as §1, §2

Assay [5] addresses T3, native human AXL on non-transfected human cell lines (A-431, A-549, HeLa, MDA-MB-231, NCI-H1299) (human, UniProt P30530 26-894).
T3 construct: Endogenous AXL of carcinoma cell lines; also called human AXL receptor tyrosine kinase; AXL receptor
T3 sequence: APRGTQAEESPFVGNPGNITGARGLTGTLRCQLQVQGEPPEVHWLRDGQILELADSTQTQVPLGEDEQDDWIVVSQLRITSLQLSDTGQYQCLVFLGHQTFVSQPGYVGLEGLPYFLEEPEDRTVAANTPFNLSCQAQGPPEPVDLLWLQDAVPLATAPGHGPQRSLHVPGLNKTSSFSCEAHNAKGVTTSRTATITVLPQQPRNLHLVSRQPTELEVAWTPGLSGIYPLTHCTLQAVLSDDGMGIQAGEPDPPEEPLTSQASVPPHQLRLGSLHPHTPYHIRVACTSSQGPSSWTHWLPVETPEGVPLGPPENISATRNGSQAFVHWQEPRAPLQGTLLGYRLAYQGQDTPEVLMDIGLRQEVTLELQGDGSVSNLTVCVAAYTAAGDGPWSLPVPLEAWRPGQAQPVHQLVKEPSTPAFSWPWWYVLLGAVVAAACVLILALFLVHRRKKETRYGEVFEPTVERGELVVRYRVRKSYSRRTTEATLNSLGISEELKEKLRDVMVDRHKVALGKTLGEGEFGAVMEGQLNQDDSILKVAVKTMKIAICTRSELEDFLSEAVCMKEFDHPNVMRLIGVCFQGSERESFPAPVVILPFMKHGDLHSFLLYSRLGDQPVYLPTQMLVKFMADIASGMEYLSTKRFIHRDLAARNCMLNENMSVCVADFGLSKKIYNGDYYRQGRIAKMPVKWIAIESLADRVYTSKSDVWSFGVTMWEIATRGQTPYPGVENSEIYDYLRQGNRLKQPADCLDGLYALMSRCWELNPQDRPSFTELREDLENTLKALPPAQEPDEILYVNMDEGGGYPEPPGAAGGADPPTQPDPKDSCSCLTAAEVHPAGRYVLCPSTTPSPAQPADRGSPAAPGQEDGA
Briefly: flow cytometry, PE conjugate on A-431, A-549, HeLa, MDA-MB-231 and NCI-H1299 cells. The source says: In contrast, the cell lines used for FIGS. 2F-2G (TH-29 and Jurkat, respectively) are known to be negative for human AXL and were thus used as negative controls.
Once cells reached 80% confluency, cells were detached from the flask using 0.25% Trypsin-0.1% EDTA and suspended in cell staining buffer. […] Cells were washed with FACS buffer and analyzed on a BD Canto II flow cytometer.

Assay [6] concerns the target T2, hAXL recombinant protein (Sino …). In words: pre-incubation of antibody with soluble recombinant human AXL, then flow cytometry on human AXL-transfected BA/F3 cells (FIG. 3B). On the procedure: as §3, §4

Residue numbers refer to the chain shown, from its start.

B1: AB1 (antibody, V domains shown)
VH: DVQLQESGPDLVKPSQSLSLTCTVTGYSITSAYSWHWIRQFPGNKLEWMGYIHYSGSTNYNPSLKSRISITRDTSKNQFFLQLNSVTTEDTATYYCARSLWFYAMDYWGQGTSVTVSS
VL: DVQITQSPSYLAASPGETITINCRASKSISKYLAWYQEKPGKTNKLLIYSGSTLQSGIPSRFSGSGSGTDFTLTISSLEPEDFAMYYCQQHNEYPWTFGGGTKLEIK
notes: Mouse hybridoma monoclonal; also called antibody 1; PU-conjugated AB1
With B1, the binding result was “no binding (tested: 1 ug (printed 'lug'))” in assay [1], “binds” in assay [2] and “binds” in assay [3].

B2: AB2 (antibody, V domains shown)
VH: B1 VH
VL: DIQMNQSPSSLSASLGDTITITCHASQNINVWLNWYQQKPGNIPKLLIYKASNLHTGVPSRFSGSGSGTGFTLTISSLQPEDIATYYCQQGQSYPLTFGGGTKLEIK
notes: Mouse hybridoma monoclonal; also called antibody 2; PE-AB2
B2: the binding result in assay [1] is on record as “no binding (tested: 1 ug (printed 'lug'))”.

B3: AB4 (antibody, V domains shown)
VH: B1 VH with N84S
VL: B1 VL with N22K, Q55H
notes: Mouse hybridoma monoclonal; also called antibody 4; PE-AB4
Regarding B3, the binding result was “binds” in assay [4], “binds” in assay [5], “no binding (tested: 1 ug (printed 'lug'))” in assay [1] and “binds” in assay [6].

B4: AB3 (antibody, V domains shown)
VH: QIQLVQSGPELKKPGETVKISCKASGYTFTNYGMNWVKQAPGKGLKWMGWINTYIGEPTYADDFKGRFAFSLETSASTAYLQINNLKNEDMGTYFCARGTTFYAMDYWGQGTSVTVSS
VL: EIVLTQSPTTMAASPGEKITITCSASSSISSNYLHWYQQKPGFSPKLLIYRTSNLASGVPARFSGSGSGTSYSLTIGTMEAEDVATYYCQQGSSILTFGAGTKLELK
notes: Mouse hybridoma monoclonal; also called antibody 3; PE-AB3
Consider B4, for which the binding result in assay [1] was “no binding (tested: 1 ug (printed 'lug'))”.

B5: AB5 (antibody, V domains shown)
VH: B4 VH with I55T, G92A, T100D, T101R
VL: B4 VL with A61T, L96F, A100S, L106I
notes: Mouse hybridoma monoclonal; also called antibody 5; PE-AB5
As for B5, the binding result in assay [4] is recorded as “binds”; in assay [5] it was “binds”; in assay [1], “no binding (tested: 1 ug (printed 'lug'))”; in assay [6], “binds”.

B6: AB6 (antibody, V domains shown)
VH: EVNLVESGGGLVQPGGSLKLSCATSGFTFSDYYMYWVRQTPEKRLEWVAYISNGGGSTYYPDTVKGRFTISRDNAKNTLYLQMSRLKSEDTAMYYCARLHFYAMDYWGQGTSVTVSS
VL: DIVMTQSHKFMSTSVGDRVSITCKASQDVSTAVAWYQQKPGQSPKLLIYWASTRHTGVPDRFTGSGSGTDYTLTISSVQAEDLALYYCQQHYNTPFTFGSGTKLEIK
notes: Mouse hybridoma monoclonal; also called antibody 6; PE-AB6
On to B6, for which the binding result was “binds” in assay [4], “binds” in assay [5], “no binding (tested: 1 ug (printed 'lug'))” in assay [1] and “binds” in assay [6].
